Laboratory results taken from the supplement of paper PMC5998384.

Key:
HeLa Kyoto [1] = assay: solubility change mitosis vs G1/S (difference of NP-40 vs SDS log2 ratios) (log2 ratio difference); higher = more soluble in mitosis
HeLa Kyoto [2] = assay: solubility in G1/S (NP-40 vs SDS abundance) (log2 ratio); higher = more soluble; conditions: cell cycle stage: G1/S
HeLa Kyoto [3] = assay: melting temperature (median over replicates), in situ; higher = more thermally stable
HeLa Kyoto [4] = assay: thermal stability score vs G1/S (z-score of summed log2 fold changes over temperatures); higher = more thermally stable than in G1/S
[5] = cell cycle stage: early G1 (4.5 h after nocodazole release)
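For melting temperature (median over replicates), in situ in this document: HeLa Kyoto cells synchronized by double thymidine or nocodazole block, proteins quantified by TMT10plex mass spectrometry, three independent biological replicates.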
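For solubility change mitosis vs G1/S (difference of NP-40 vs SDS log2 ratios) in this document: synchronized HeLa Kyoto cells (double thymidine block for G1/S, nocodazole release for mitosis), protein amounts in NP-40 versus SDS lysates quantified by mass spectrometry, three biological replicates.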
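For solubility in G1/S (NP-40 vs SDS abundance) in this document: HeLa Kyoto cells arrested at G1/S by double thymidine block, proteins quantified by TMT10plex mass spectrometry in mild NP-40 versus SDS extracts, three biological replicates.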
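For thermal stability score vs G1/S (z-score of summed log2 fold changes over temperatures) in this document: synchronized HeLa Kyoto cells, proteins quantified by TMT10plex mass spectrometry, three biological replicates, mitosis taken 0.5 h after nocodazole release, G1/S directly after double thymidine block.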

| Sequence | solubility change mitosis (log2) (HeLa Kyoto [1]) | solubility in G1/S (log2) (HeLa Kyoto [2]) | melting temperature (HeLa Kyoto [3]; cell cycle stage: G1/S) | melting temperature (HeLa Kyoto [3]; cell cycle stage: mitosis) | thermal stability score (HeLa Kyoto [4]; [5]) | thermal stability score (HeLa Kyoto [4]; cell cycle stage: mitosis) |
| --- | --- | --- | --- | --- | --- | --- |
| MAAFSKYLTARNSSLAGAAFLLLCLLHKRRRALGLHGKKSGKPPLQNNEKEGKKERAVVDKVFFSRLIQILKIMVPRTFCKETGYLVLIAVMLVSRTYCDVWMIQNGTLIESGIIGRSRKDFKRYLLNFIAAMPLISLVNNFLKYGLNELKLCFRVRLTKYLYEEYLQAFTYYKMGNLDNRIANPDQLLTQDVEKFCNSVVDLYSNLSKPFLDIVLYIFKLTSAIGAQGPASMMAYLVVSGLFLTRLRRPIGKMTITEQKYEGEYRYVNSRLITNSEEIAFYNGNKREKQTVHSVFRKLVEHLHNFILFRFSMGFIDSIIAKYLATVVGYLVVSRPFLDLSHPRHLKSTHSELLEDYYQSGRMLLRMSQALGRIVLAGREMTRLAGFTARITELMQVLKDLNHGKYERTMVSQQEKGIEGVQVIPLIPGAGEIIIADNIIKFDHVPLATPNGDVLIRDLNFEVRSGANVLICGPNGCGKSSLFRVLGELWPLFGGRLTKPERGKLFYVPQRPYMTLGTLRDQVIYPDGREDQKRKGISDLVLKEYLDNVQLGHILEREGGWDSVQDWMDVLSGGEKQRMAMARLFYHKPQFAILDECTSAVSVDVEGYIYSHCRKVGITLFTVSHRKSLWKHHEYYLHMDGRGNYEFKQITEDTVEFGS [ABCD3] | -0.103 | -0.213 | 52.5 °C | 52.3 °C | 1.37 | 0.619 |
| MAAGAAEAAVAAVEEVGSAGQFEELLRLKAKSLLVVHFWAPWAPQCAQMNEVMAELAKELPQVSFVKLEAEGVPEVSEKYEISSVPTFLFFKNSQKIDRLDGAHAPELTKKVQRHASSGSFLPSANEHLKEDLNLRLKKLTHAAPCMLFMKGTPQEPRCGFSKQMVEILHKHNIQFSSFDIFSDEEVRQGLKAYSSWPTYPQLYVSGELIGGLDIIKELEASEELDTICPKAPKLEERLKVLTNKASVMLFMKGNKQEAKCGFSKQILEILNSTGVEYETFDILEDEEVRQGLKAYSNWPTYPQLYVKGELVGGLDIVKELKENGELLPILRGEN [GLRX3] | -0.111 | 0.354 | 49.6 °C | 49.9 °C | 2.12 | 1.6 |
| MAAGFGRCCRVLRSISRFHWRSQHTKANRQREPGLGFSFEFTEQQKEFQATARKFAREEIIPVAAEYDKTGEYPVPLIRRAWELGLMNTHIPENCGGLGLGTFDACLISEELAYGCTGVQTAIEGNSLGQMPIIIAGNDQQKKKYLGRMTEEPLMCAYCVTEPGAGSDVAGIKTKAEKKGDEYIINGQKMWITNGGKANWYFLLARSDPDPKAPANKAFTGFIVEADTPGIQIGRKELNMGQRCSDTRGIVFEDVKVPKENVLIGDGAGFKVAMGAFDKTRPVVAAGAVGLAQRALDEATKYALERKTFGKLLVEHQAISFMLAEMAMKVELARMSYQRAAWEVDSGRRNTYYASIAKAFAGDIANQLATDAVQILGGNGFNTEYPVEKLMRDAKIYQIYEGTSQIQRLIVAREHIDKYKN [ACADM] | -0.0323 | 0.248 | 54.7 °C | 54.7 °C | -1.04 | -2.26 |
| MAAGGGGGSSKASSSSASSAGALESSLDRKFQSVTNTMESIQGLSSWCIENKKHHSTIVYHWMKWLRRSAYPHRLNLFYLANDVIQNCKRKNAIIFRESFADVLPEAAALVKDPSVSKSVERIFKIWEDRNVYPEEMIVALREALSTTFKTQKQLKENLNKQPNKQWKKSQTSTNPKAALKSKIVAEFRSQALIEELLLYKRSEDQIELKEKQLSTMRVDVCSTETLKCLKDKTGGKKFSKEFEEASSKLEEFVNGLDKQVKNGPSLTEALENAGIFYEAQYKEVKVVANAYKTFANRVNNLKKKLDQLKSTLPDPEESPVPSPSMDAPSPTGSESPFQGMGGEESQSPTMESEKSATPEPVTDNRDVEDMELSDVEDDGSKIIVEDRKEKPAEKSAVSTSVPTKPTENISKASSCTPVPVTMTATPPLPKPVNTSLSPSPALALPNLANVDLAKISSILSSLTSVMKNTGVSPASRPSPGTPTSPSNLTSGLKTPAPATTTSHNPLANILSKVEITPESILSALSKTQTQSAPALQGLSSLLQSVTGNPVPASEAASQSTSASPANTTVSTIKGRNLPSSAQPFIPKSFNYSPNSSTSEVSSTSASKASIGQSPGLPSTTFKLPSNSLGFTATHNTSPAAPPTEVTICQSSEVSKPKLESESTSPSLEMKIHNFLKGNPGFSGLNLNIPILSSLGSSAPSESHPSDFQRGPTSTSIDNIDGTPVRDERSGTPTQDEMMDKPTSSSVDTMSLLSKIISPGSSTPSSTRSPPPGRDESYPRELSNSVSTYRPFGLGSESPYKQPSDGMERPSSLMDSSQEKFYPDTSFQEDEDYRDFEYSGPPPSAMMNLEKKPAKSILKSSKLSDTTEYQPILSSYSHRAQEFGVKSAFPPSVRALLDSSENCDRLSSSPGLFGAFSVRGNEPGSDRSPSPSKNDSFFTPDSNHNSLSQSTTGHLSLPQKQYPDSPHPVPHRSLFSPQNTLAAPTGHPPTSGVEKVLASTISTTSTIEFKNMLKNASRKPSDDKHFGQAPSKGTPSDGVSLSNLTQPSLTATDQQQQEEHYRIETRVSSSCLDLPDSTEEKGAPIETLGYHSASNRRMSGEPIQTVESIRVPGKGNRGHGREASRVGWFDLSTSGSSFDNGPSSASELASLGGGGSGGLTGFKTAPYKERAPQFQESVGSFRSNSFNSTFEHHLPPSPLEHGTPFQREPVGPSSAPPVPPKDHGGIFSRDAPTHLPSVDLSNPFTKEAALAHAAPPPPPGEHSGIPFPTPPPPPPPGEHSSSGGSGVPFSTPPPPPPPVDHSGVVPFPAPPLAEHGVAGAVAVFPKDHSSLLQGTLAEHFGVLPGPRDHGGPTQRDLNGPGLSRVRESLTLPSHSLEHLGPPHGGGGGGGSNSSSGPPLGPSHRDTISRSGIILRSPRPDFRPREPFLSRDPFHSLKRPRPPFARGPPFFAPKRPFFPPRY [RPRD2] | 0.0816 | -0.0214 | 48 °C | 49.2 °C | 2.07 | 4.95 |
